B1: Circadian clock oscillator protein KaiC (Synechococcus elongatus (strain PCC 7942)), Q79PF4 (parent)
chain: MTSAEMTSPNNNSEHQAIAKMRTMIEGFDDISHGGLPIGRSTLVSGTSGTGKTLFSIQFLYNGIIEFDEPGVFVTFEETPQDIIKNARSFGWDLAKLVDEGKLFILDASPDPEGQEVVGGFDLSALIERINYAIQKYRARRVSIDSVTSVFQQYDASSVVRRELFRLVARLKQIGATTVMTTERIEEYGPIARYGVEEFVSDNVVILRNVLEGERRRRTLEILKLRGTSHMKGEYPFTITDHGINIFPLGAMRLTQRSSNVRVSSGVVRLDEMCGGGFFKDSIILATGATGTGKTLLVSRFVENACANKERAILFAYEESRAQLLRNAYSWGMDFEEMERQNLLKIVCAYPESAGLEDHLQIIKSEINDFKPARIAIDSLSALARGVSNNAFRQFVIGVTGYAKQEEITGLFTNTSDQFMGAHSITDSHISTITDTIILLQYVEIRGEMSRAINVFKMRGSWHDKAIREFMISDKGPDIKDSFRNFERIISGSPTRITVDEKSELSRIVRGVQEKGPES
partner: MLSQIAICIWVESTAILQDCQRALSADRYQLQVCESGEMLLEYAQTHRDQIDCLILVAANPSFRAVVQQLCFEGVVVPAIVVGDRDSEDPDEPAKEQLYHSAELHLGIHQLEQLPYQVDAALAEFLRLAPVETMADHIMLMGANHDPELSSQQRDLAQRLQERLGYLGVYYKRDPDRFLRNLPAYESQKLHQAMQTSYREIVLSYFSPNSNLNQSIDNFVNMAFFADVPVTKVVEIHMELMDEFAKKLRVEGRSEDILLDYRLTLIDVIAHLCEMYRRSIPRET
B2: Circadian clock oscillator protein KaiA (Synechococcus elongatus (strain PCC 7942)), Q79PF6 (parent)
chain: B1 partner
partner: B1 chain

Variants of: B1
Details: with kaia_syne7 kaiA, Q79PF6

effect of a mutation on the interaction	Variant
decreasing interaction	P248K
decreasing interaction	R215C

Variants of: B1
Details: with kaia_syne7 kaiA, Q79PF6
Remark: another data set of the same source

effect of a mutation on the interaction	Variant
decreasing interaction	T495A

Variants of: B2
Details: with kaic_syne7 kaiC, Q79PF4

effect of a mutation on the interaction	Variant
decreasing interaction	Y166C

Variants of: B2
Details: with kaic_syne7 kaiC, Q79PF4
Remark: another data set of the same source

effect of a mutation on the interaction	Variant
decreasing interaction	R249H

From IntAct's records for PubMed 11356188
